Data on 111 variants can be found in the emibetuzumab library of Makowski et al. (2022).

First the molecules themselves.
B1: VH:VL chains; a variant is named by its letters at X, in order (parent)
chain 1: QVQLVQSGAEVKKPGASVKVSCKASGYTFTDYXMHWVRQAPGQGLEWMGXVNPNXXXTTYNQKFEGRVTMTTDTSTSTAYMELRSLRSDDTAVYYCARXNXLDXWGQGTTVTVSS
chain 2: DIQMTQSPSSLSASVGDRVTITCSVSSSVSSIYLHWYQQKPGKAPKLLIYSTSNLASGVPSRFSGSGSGTDFTLTISSLQPEDFATYYCQVYSGYPLTFGGGTKVEIK

This data set covers variants of B1. Put plainly: yeast display scFab, FACS + sequencing. In a few lines: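 For the non-specific binding call, a heavy-chain CDR mutant scFab library on the yeast surface was FACS-sorted and samples from two replicates were deep sequenced. Cells were labelled with anti-Myc and either biotinylated ovalbumin (260 μg/mL in PBSB, 3 h, room temperature) or soluble membrane proteins (130 μg/mL, 20 min on ice), with gates on the top 25% and bottom 10% of binders. With membrane protein and ovalbumin samples pooled, a sequence in ≥3 of 4 positive samples and no negatives was scored positive, and the converse rule scored negatives.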
As for FAEGDDSA, the non-specific binding call was “no binding”.

VAEKGDWY: the non-specific binding call is listed as “no binding”.

As to FAAAGFVA, the non-specific binding call is given as “binds”.

Take VAEKGDAA: the non-specific binding call is recorded as “no binding”.

With SAAGGAAD chain 1 L45S, the non-specific binding call is “no binding”.

Regarding VAEKGSSA, the non-specific binding call is reported as “no binding”.

Take SAGGDYVF: the non-specific binding call is on record as “no binding”.

Turning to YAARGSAA, the non-specific binding call was “binds”.

As to SAAGGASD chain 1 L45S, the non-specific binding call is given as “no binding”.

Regarding DAGEAFSF, the non-specific binding call is recorded as “no binding”.

Turning to DAGAADAV, the non-specific binding call is given as “no binding”.

For DAGGADGV, the non-specific binding call is “no binding”.

As to YAGGDDSA, the non-specific binding call is recorded as “no binding”.

For VAGAGAGA, the non-specific binding call was “no binding”.

For SAARDFWV, the non-specific binding call is recorded as “no binding”.

As for FAEGAAAV, the non-specific binding call is listed as “no binding”.

In the case of YAARAAVD, the non-specific binding call was “binds”.

Turning to AAARNFLF chain 1 V68I, the non-specific binding call is reported as “binds”.

With DAGGGAAV, the non-specific binding call is “no binding”.

Take SAEGGSSA: the non-specific binding call is “no binding”.

With DAEGDAGD, the non-specific binding call was “no binding”.

For YAARAALD, the non-specific binding call is listed as “binds”.

Take VAATADVA: the non-specific binding call is listed as “no binding”.

Take VAATASWV: the non-specific binding call is listed as “no binding”.

For the variant VAETAAAA, the non-specific binding call is on record as “no binding”.

Consider VAATADSS, for which the non-specific binding call was “no binding”.

For YAAGGDGV, the non-specific binding call is given as “no binding”.

For DAGGGDAV, the non-specific binding call is recorded as “no binding”.

As for SAAGGDVA chain 1 L45S, the non-specific binding call is listed as “no binding”.

Take VAGGDDWV: the non-specific binding call is reported as “no binding”.

Turning to FAEGAAGD, the non-specific binding call is on record as “no binding”.

With SAAGGDGV chain 1 L45S, the non-specific binding call is reported as “no binding”.

For the variant YAEESDWV, the non-specific binding call is “no binding”.

With VAGGDDGF, the non-specific binding call is listed as “no binding”.

For the variant VAGGDDGA, the non-specific binding call is recorded as “no binding”.

On to DAEESDGA, for which the non-specific binding call is on record as “no binding”.

On to DAEKGAWA, for which the non-specific binding call is “no binding”.

Regarding DAERTDGV, the non-specific binding call is “no binding”.

Take VAGAGDVV: the non-specific binding call is “no binding”.

Turning to YAEESSAD, the non-specific binding call was “no binding”.

On to DAGGASGV, for which the non-specific binding call is on record as “no binding”.

On to VAGAGDSV, for which the non-specific binding call is reported as “no binding”.

For VAEKDDGS, the non-specific binding call is “no binding”.

SAAGADWS: the non-specific binding call is given as “no binding”.

With VAGGAYLY, the non-specific binding call is on record as “no binding”.

For YAAKNDGA, the non-specific binding call was “no binding”.

In the case of FAAGGAAS, the non-specific binding call was “binds”.

With YAGGGDGA, the non-specific binding call is listed as “no binding”.

FAARSYGD: the non-specific binding call was “binds”.

With DAAGASVD, the non-specific binding call is given as “no binding”.

SAAGGAGA chain 1 L45S: the non-specific binding call is “no binding”.

For the variant YAGGDFAY, the non-specific binding call is on record as “no binding”.

Regarding DAGGAAAV, the non-specific binding call is “no binding”.

On to DAGGAAAA, for which the non-specific binding call is on record as “no binding”.

Regarding DAGGAAAD, the non-specific binding call is on record as “no binding”.

Consider AAEGDAAD, for which the non-specific binding call is “no binding”.

Regarding VAATAAGA, the non-specific binding call is on record as “no binding”.

Turning to DAARGAGD, the non-specific binding call is recorded as “no binding”.

With VAGGDAAA, the non-specific binding call was “no binding”.

Take FAAETDVF: the non-specific binding call is listed as “no binding”.

As to DAGAADVV, the non-specific binding call is “no binding”.

AAGGDYVF: the non-specific binding call is listed as “no binding”.

Regarding DAEATSLV, the non-specific binding call is reported as “no binding”.

Take FAAGSYAV: the non-specific binding call is listed as “binds”.

As for DAAGADWY, the non-specific binding call is listed as “no binding”.

Take VAEKGFGA: the non-specific binding call is reported as “no binding”.

As for YAGETFGA, the non-specific binding call is listed as “binds”.

As to VAARGDAA, the non-specific binding call is “no binding”.

In the case of SAEATDLY, the non-specific binding call is given as “no binding”.

For the variant VAGGDYLV, the non-specific binding call is given as “no binding”.

Take DAGGAAVA: the non-specific binding call is given as “no binding”.

Take DAGGAAVS: the non-specific binding call is “no binding”.

Regarding SAGEGDWV, the non-specific binding call was “no binding”.

On to VAATADAV, for which the non-specific binding call is given as “no binding”.

As to VAEGDAAD, the non-specific binding call is given as “no binding”.

Turning to YAGAGSAD, the non-specific binding call is recorded as “no binding”.

As for DAARAVSS, the non-specific binding call is “binds”.

As for DAATAYGS, the non-specific binding call is given as “binds”.

For the variant DAEKDSGA, the non-specific binding call was “no binding”.

In the case of YAEGDAAD, the non-specific binding call is reported as “no binding”.

For VAGGDFGV, the non-specific binding call is “no binding”.

DAGGDDGA: the non-specific binding call is reported as “no binding”.

Consider DAEATSWV, for which the non-specific binding call is reported as “no binding”.

For the variant VAAAGAAV, the non-specific binding call was “no binding”.

Consider DAGEAAGD, for which the non-specific binding call is “no binding”.

Regarding DAEATDVA, the non-specific binding call was “no binding”.

DAGGADWA: the non-specific binding call is recorded as “no binding”.

Consider AAEGGYAV, for which the non-specific binding call is recorded as “binds”.

For the variant VAGAGYGA, the non-specific binding call was “binds”.

Take YAAGGDVA: the non-specific binding call was “no binding”.

With DAEGGSLD, the non-specific binding call is recorded as “no binding”.

With SAAGSVWY, the non-specific binding call is listed as “no binding”.

For YAAGGFAY, the non-specific binding call is “binds”.

Take SAGEGSLV: the non-specific binding call was “no binding”.

Take YAGAGAVY: the non-specific binding call is on record as “no binding”.

As to VAEKGAGD, the non-specific binding call was “no binding”.

Consider DAEATDGA, for which the non-specific binding call is “no binding”.

Take SAEEDDVY: the non-specific binding call is given as “no binding”.

On to DAGGASLD, for which the non-specific binding call is recorded as “no binding”.

As for YAEESAGD, the non-specific binding call is reported as “no binding”.

Regarding YAAGSDVY, the non-specific binding call is reported as “no binding”.

Regarding DAEGDDGA, the non-specific binding call is recorded as “no binding”.

Consider YAEESSGV, for which the non-specific binding call is recorded as “no binding”.

In the case of YAARASGF, the non-specific binding call is reported as “binds”.

Turning to FAEGSYAF, the non-specific binding call is “binds”.

With YAGAAAVD, the non-specific binding call is “binds”.

For DAARGDAA, the non-specific binding call is “no binding”.

As for DAARGDAV, the non-specific binding call is given as “no binding”.

Consider YAEESDVA, for which the non-specific binding call is “no binding”.

With VAEKGDLS, the non-specific binding call is given as “no binding”.

Take AAAGGSWS: the non-specific binding call is “binds”.
